This is an account of results in article PMC12847820, “Molecular characterisation of the Bacillus subtilis SpbK antiphage defence system” (Nature Communications, 2025).

The target in series [1] is MBP-SpbK D158R (Bacillus subtilis). The series is described as follows: mass photometry + SEC-MALS; MBP-SpbK wild type and mutants in solution; 10 mM HEPES pH 7.5, 150 mM NaCl; Superdex 200 5/150 Increase for SEC-MALS; self-association. In general terms: In gel filtration, larger molecules generally elute earlier.
Series [2] has as its target MBP-SpbK G194R (Bacillus subtilis). The description is as above.
Series [3] has as its target MBP-SpbK (full-length SpbK as a maltose-binding protein fusion) (Bacillus subtilis). The description is as above.
Series [4] concerns the molecule itself. The series is described as follows: mass photometry; YonE in solution; 10 mM HEPES pH 7.5, 150 mM NaCl; self-association.

With MBP-SpbK D158R (natural protein), in series [1], the stoichiometry N (as a rule, the number of molecules, sites or subunits per partner or assembly) was 2.

For MBP-SpbK G194R (natural protein), the stoichiometry N in series [2] stood at 2. For the molecule “MBP-SpbK (full-length SpbK as a maltose-binding protein fusion) (natural protein)”, the stoichiometry N in series [3] amounted to 2.

B1: YonE (residues 46-506), portal protein of phage SPβ (natural protein, Bacillus subtilis phage SPβ, UniProt O31953 46-506, looked up)
chain: EAEQLKNYFSNPDEFQEEIEDLAQYFYISTAEIHQLFELIEALPTLNYKIDSFNKVKSSDKHISLLNKSLHKVKHKRLTRDLLKQVATAGTLVGIWLGDAKSPYPFIFDEIKYVFPSFRRNGDWVCVVDMELFTKYKDDQRNELLKSLSPYIKQSDYENFMKDREKYRFKELPQERTFPLRTGTLKRNQGLGTSWVTPGLYDVLHKKKLKDVERSIANKIINAVAVLTIGTDKGNGEYTNMKLPKAVKQKIHGGVKTALEKNQKDGVTVVSIPDFADINFPDVKADGLDGAKFDHINSDIQSAYGLSGSLLNGDGGNYATSSLNLDTFYKRIGVLMEDIEQEVYQKLFNLVLPAAQKDNYYMNYDKDKPLTLKEKMDILIKLNDKGWSIKHVVDNLAGVSWESYLEQTLYETEELKLQEKIRPYQTSYTFTGNEVGRPNEGNKNNDNTVKSATSNGNDNPI
notes: YonE, product of the SPβ gene yonE, portal protein; truncated construct lacking the first 45 residues, residues 46-506; Dodecamer by mass photometry and cryo-EM; printed theoretical mass of the dodecamer 665 kDa; also called wild-type YonE; YonE dodecamer; source: E. coli BL21 (DE3), autoinduction, purified (IMAC, SEC); copies: 12
As for B1, the “stoichiometry N” value in series [4] came to 12.
